This is an account of results in publication PMC9828358.

For assay [1], the target named is 33‐mer gliadin peptide (wheat). Kind of assay: other fluorescence titration; intrinsic Tyr steady-state fluorescence anisotropy against peptide concentration (100-600 μM), stabilised aqueous solution pH 6.5, 25 °C, excitation 280 nm, emission 305 nm; simple one-to-one binding model; step: association of oligomers into the larger structures.
The target of assay [2] is 33‐mer gliadin peptide (wheat). The assay can be described thus: surface tension (Wilhelmy plate); titration of freshly filtered (220 nm cut-off) peptide into the subphase, nanomolar range, 22 °C; critical concentration of aggregation.

As usually defined, the Kd is the equilibrium constant for the complex coming apart. Lower therefore signals tighter binding.

Turning to 33‐mer gliadin peptide, the Kd in assay [1] was 165 µM. Moreover, the critical concentration of aggregation (CAC) in assay [2] amounted to 75 nM.
